From patent US20020098560

Tests used:
[1] = system: Recombinant TFPI-2 (novel human Kunitz-type inhibitor encoded by clone J-2-11, expressed in BHK570 cells and purified from conditioned medium)
[2] = biological target: T1, Recombinant TFPI-2 (novel human Kunitz-type inhibitor encoded by clone J-2-11, expressed in BHK570 cells and purified from conditioned medium)
T1 chain: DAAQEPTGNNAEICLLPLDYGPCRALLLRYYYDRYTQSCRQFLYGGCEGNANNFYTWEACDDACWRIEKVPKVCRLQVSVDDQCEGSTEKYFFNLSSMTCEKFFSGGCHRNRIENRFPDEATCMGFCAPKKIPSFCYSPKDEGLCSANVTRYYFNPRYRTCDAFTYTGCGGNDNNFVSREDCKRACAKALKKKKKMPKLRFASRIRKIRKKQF

Human factor Xa was tested, and the “amidolytic activity of 20 nM factor Xa towards chromogenic substrate S-2222 (absorbance at 405 nm)” value [1] was “Recombinant TFPI-2 was shown to weakly inhibit the amidolytic activity of 20 nM factor Xa towards the chromogenic substrate S-2222 in a dose-dependent manner”.

For Human thrombin, the “amidolytic activity of human thrombin towards chromogenic substrate S-2238 (absorbance at 405 nm)” value [1] was “Recombinant TFPI-2 was shown to have no effect on the amidolytic activity of human thrombin towards S-2238”.

B1: Human factor VIIa/tissue factor complex (recombinant human factor VIIa with recombinant, truncated, human tissue factor apoprotein TF1-219) (protein)
chain 1: ANAFLEELRPGSLERECKEEQCSFEEAREIFKDAERTKLFWISYSDGDQCASSPCQNGGSCKDQLQSYICFCLPAFEGRNCETHKDDQLICVNENGGCEQYCSDHTGTKRSCRCHEGYSLLADGVSCTPTVEYPCGKIPILEKRNASKPQGRIVGGKVCPKGECPWQVLLLVNGAQLCGGTLINTIWVVSAAHCFDKIKNWRNLIAVLGEHDLSEHDGDEQSRRVAQVIIPSTYVPGTTNHDIALLRLHQPVVLTDHVVPLCLPERTFSERTLAFVRFSLVSGWGQLLDRGATALELMVLNVPRLMTQDCLQQSRKVGDSPNITEYMFCAGYSDGSKDSCKGDSGGPHATHYRGTWYLTGIVSWGQGCATVGHFGVYTRVSQYIEWLQKLMRSEPRPGVLLRAPFP
chain 2: SGTTNTVAAYNLTWKSTNFKTILEWEPKPVNQVYTVQISTKSGDWKSKCFYTTDTECDLTDEIVKDVKQTYLARVFSYPAGNVESTGSAGEPLYENSPEFTPYLETNLGQPTIQSFEQVGTKVNVTVEDERTLVRRNNTFLSLRDVFGKDLIYTLYYWKSSSSGKKTAKTNTNEFLIDVDKGENYCFSVQAVIPSRTVNRKSTDSPVECMGQEKGEFRE
In the case of B1, the “amidolytic activity of 20 nM factor VIIa-tissue factor towards chromogenic substrate S-2288 (absorbance at 405 nm)” value [2] is reported as “Recombinant TFPI-2 was shown to inhibit the amidolytic activity of 20 nM factor VIIa-tissue factor towards the chromogenic substrate S-2288 in a dose-dependent manner”.
